US20240327480A1 (published 2024)
Ends that are not written are not given here. * marks the point of attachment. Biotin = O=C1N[C@H]2[C@H](CS[C@H]2CCCCC(=O)*)N1

T1: AA111-228 DNA-binding domain of RXR-alpha (human, UniProt P19793 111-228)
T1 construct: range 111-228; Bought recombinant protein (Abcam); also called RXRa-DBD; RXR-alpha DBD
T1 sequence (looked up): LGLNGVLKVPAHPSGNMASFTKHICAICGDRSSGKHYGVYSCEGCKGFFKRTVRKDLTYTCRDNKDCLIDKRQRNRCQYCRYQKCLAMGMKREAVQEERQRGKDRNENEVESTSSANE

T2: RXR-alpha ligand-binding domain (human, UniProt P19793 223-462, limits assumed)
T2 construct: Bought recombinant protein (Abcam); also called RXRa-LBD; RXR-alpha LBD
T2 sequence (looked up): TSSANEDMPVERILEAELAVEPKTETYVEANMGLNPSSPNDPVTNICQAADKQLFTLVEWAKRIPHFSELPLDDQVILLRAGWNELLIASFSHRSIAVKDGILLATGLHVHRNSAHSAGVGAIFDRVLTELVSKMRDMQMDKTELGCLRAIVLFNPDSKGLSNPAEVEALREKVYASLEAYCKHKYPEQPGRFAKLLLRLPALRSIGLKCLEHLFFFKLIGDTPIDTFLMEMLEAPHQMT

T3: full length RXR-beta (human, UniProt P28702 1-533)
T3 construct: mature; also called RXRβ; NR2B2
T3 sequence (looked up): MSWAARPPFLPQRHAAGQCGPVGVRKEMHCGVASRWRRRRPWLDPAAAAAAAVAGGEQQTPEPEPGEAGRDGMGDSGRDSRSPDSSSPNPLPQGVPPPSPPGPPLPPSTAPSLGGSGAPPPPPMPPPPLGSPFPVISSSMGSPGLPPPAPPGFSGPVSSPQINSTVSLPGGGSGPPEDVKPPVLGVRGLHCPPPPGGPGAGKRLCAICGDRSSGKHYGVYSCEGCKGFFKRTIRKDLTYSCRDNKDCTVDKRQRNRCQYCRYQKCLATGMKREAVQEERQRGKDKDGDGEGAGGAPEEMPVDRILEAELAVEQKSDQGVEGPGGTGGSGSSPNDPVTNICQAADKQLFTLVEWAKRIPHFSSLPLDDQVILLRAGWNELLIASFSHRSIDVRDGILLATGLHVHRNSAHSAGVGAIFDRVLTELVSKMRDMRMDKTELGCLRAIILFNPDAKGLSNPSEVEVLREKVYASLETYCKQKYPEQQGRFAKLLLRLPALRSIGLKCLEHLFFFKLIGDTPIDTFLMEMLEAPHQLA

T4: full length RXR-gamma (human, UniProt P48443 1-463)
T4 construct: mature; also called RXRγ; NR2B3
T4 sequence (looked up): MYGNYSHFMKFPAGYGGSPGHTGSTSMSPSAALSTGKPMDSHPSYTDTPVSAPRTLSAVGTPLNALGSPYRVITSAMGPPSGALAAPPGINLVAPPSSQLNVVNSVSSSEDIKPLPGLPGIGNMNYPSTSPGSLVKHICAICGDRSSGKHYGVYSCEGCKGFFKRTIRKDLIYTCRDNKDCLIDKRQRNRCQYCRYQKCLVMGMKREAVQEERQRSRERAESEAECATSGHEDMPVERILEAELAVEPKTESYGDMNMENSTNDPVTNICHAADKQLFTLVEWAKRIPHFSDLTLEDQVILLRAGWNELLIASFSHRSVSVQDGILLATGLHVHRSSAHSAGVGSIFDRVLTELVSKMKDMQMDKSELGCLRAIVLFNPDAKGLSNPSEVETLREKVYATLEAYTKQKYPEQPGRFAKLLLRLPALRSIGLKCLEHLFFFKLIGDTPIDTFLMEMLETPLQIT

T5: full length PPAR-gamma (human, UniProt P37231 1-505)
T5 construct: mature
T5 sequence (looked up): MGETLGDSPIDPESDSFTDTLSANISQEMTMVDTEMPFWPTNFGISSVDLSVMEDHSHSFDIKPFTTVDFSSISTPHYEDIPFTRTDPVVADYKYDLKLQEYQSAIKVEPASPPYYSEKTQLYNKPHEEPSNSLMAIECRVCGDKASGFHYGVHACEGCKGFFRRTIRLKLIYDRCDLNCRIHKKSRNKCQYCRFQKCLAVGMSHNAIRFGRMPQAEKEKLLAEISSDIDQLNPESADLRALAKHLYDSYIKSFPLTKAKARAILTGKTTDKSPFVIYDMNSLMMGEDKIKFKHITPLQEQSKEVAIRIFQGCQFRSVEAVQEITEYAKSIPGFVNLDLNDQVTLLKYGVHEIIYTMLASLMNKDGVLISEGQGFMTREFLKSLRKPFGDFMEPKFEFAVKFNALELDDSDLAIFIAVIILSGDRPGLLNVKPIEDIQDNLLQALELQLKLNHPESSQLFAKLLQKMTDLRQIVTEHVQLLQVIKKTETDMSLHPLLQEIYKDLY

T6: full length RXR-alpha (human, UniProt P19793 1-462)
T6 construct: mature; also called RXRα; NR2B1
T6 sequence (looked up): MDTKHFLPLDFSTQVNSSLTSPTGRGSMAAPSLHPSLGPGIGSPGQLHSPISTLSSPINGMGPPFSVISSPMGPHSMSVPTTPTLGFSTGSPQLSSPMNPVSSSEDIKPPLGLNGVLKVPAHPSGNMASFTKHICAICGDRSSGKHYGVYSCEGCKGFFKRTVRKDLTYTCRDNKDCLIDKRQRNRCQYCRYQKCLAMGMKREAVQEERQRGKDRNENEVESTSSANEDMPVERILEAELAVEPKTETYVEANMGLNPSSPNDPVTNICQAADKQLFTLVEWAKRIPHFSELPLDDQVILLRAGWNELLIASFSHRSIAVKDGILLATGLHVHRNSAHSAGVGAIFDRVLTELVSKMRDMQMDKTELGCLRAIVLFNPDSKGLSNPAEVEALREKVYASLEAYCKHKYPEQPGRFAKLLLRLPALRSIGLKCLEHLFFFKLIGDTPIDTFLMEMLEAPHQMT

B1: imm4 (peptide)
peptide: Biotin-RNGNFHPKQCHPALDGQRGKCW
modifications: cysteine pairing not given here; also: labelled with Streptavidin-Alexa 488 conjugate (SA488)
notes: Synthetic immodulin peptide derived from IGFBP-4
B2: imm3 (peptide)
peptide: Biotin-KKGFYKKKQCRPSKGRKRGFCW
modifications: cysteine pairing not given here; also: labelled with Streptavidin-Alexa 488 conjugate (SA488)
notes: Synthetic immodulin peptide derived from IGFBP-3; also called immodulin peptide-3
B3: imm6 (peptide)
peptide: Biotin-HRGFYRKRQCRSSQGQRRGPCW
modifications: cysteine pairing not given here; also: labelled with Streptavidin-Alexa 488 conjugate (SA488)
notes: Synthetic immodulin peptide derived from IGFBP-6; also called immodulin peptide-6
B4: imm5 (peptide)
peptide: Biotin-RKGFYKRKQCKPSRGRKRGICW
modifications: cysteine pairing not given here; also: labelled with Streptavidin-Alexa 488 conjugate (SA488)
notes: Synthetic immodulin peptide derived from IGFBP-5; also called immodulin peptide-5

Columns and labels:
[1] = target: T7, full-length human Nur77 (NR4A1) (human, UniProt P22736 1-598); assay: plate binding assay, SA488-labelled peptide on adsorbed Nur77, fluorescence
T7 construct: mature
T7 sequence (P22736 whole entry): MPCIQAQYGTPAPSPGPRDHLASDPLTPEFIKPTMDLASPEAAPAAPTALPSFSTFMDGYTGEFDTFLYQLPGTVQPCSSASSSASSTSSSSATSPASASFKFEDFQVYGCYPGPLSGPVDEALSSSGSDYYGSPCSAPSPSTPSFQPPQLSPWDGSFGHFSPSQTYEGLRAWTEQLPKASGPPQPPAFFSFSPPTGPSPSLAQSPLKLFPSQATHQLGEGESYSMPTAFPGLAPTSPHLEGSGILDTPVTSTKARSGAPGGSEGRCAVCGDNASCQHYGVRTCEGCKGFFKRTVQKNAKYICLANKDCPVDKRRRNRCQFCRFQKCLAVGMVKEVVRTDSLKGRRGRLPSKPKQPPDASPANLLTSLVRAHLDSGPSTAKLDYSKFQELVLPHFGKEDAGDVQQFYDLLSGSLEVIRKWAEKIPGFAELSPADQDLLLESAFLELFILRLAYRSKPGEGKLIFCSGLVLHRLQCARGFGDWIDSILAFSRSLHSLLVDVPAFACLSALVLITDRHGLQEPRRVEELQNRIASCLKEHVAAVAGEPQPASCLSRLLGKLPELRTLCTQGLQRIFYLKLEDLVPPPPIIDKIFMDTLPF
Method: Experiment 4C. Binding of immodulin peptides to full-length human Nur77 (NR4A1). 400 ng/well recombinant human Nur77 protein (NR4A1) purchased from Abcam Inc, Cambridge, MA, was adsorbed to wells of a 96-well plate for 90 minutes at room temperature, then blocked with 200 uL 1% BSA in PBS buffer overnight. […] The plate was incubated for 60 min at room temperature, washed and counted in a standard fluorometer (excitation/emission 485/525 nm). Background (buffer alone) was subtracted.

[2] = target: T1, AA111-228 DNA-binding domain of …; assay: plate binding assay, 800 ng/well SA488-labelled peptide on 1 ug/well adsorbed RXRa-DBD
Method: Experiment 4A. Binding of immodulin peptides to AA111-228 DNA-binding domain of RXR-alpha (RXRa-DBD). 1 ug/well recombinant RXRa-DBD (Abcam, Cambridge, MA) was adsorbed to wells of a 96-well plate for 60 minutes at room temperature, then blocked with 200 uL 1% bovine serum albumin (BSA) in PBS buffer overnight. Plate was washed and 800 ng/well Streptavidin-Alexa 488 conjugate (SA488)-labelled immX peptide was added. The plate was incubated for 60 min at room temperature, washed and counted in a standard fluorometer (excitation/emission 485/525 nm). Background (buffer alone) was subtracted.

[3] = target: T1, AA111-228 DNA-binding domain of …; assay: plate binding assay, 800 ng/well SA488-labelled peptide on 100 ng/well adsorbed domain
Method: (§1) Experiment 4B. Binding of immodulin peptides to RXR isoforms and domains. 100 ng/well recombinant human RXRa-DBD or RXRa-LBD, or 400 ng/well full length RXR-alpha, RXR-beta, RXR-gamma or PPAR-gamma (Abcam, Cambridge, MA) was adsorbed to wells of a 96-well plate for 60 minutes at room temperature, then blocked with 200 uL 1% BSA in PBS buffer overnight. The plate was washed with PBS and 800 ng/well Streptavidin-Alexa 488 conjugate (SA488)-labelled peptide was added. The plate was incubated for 2 hours at room temperature, washed and counted in a fluorometer (excitation/emission 485/525 nm).

[4] = target: T2, RXR-alpha ligand-binding domain; assay: as above
Method: as §1

full length RXR-beta = target: T3, full length RXR-beta; assay: plate binding assay, 800 ng/well SA488-labelled peptide on 400 ng/well adsorbed receptor
Method: as §1

full length RXR-gamma = target: T4, full length RXR-gamma; assay: as above
Method: as §1

full length PPAR-gamma = target: T5, full length PPAR-gamma; assay: as above
Method: as §1

full length RXR-alpha = target: T6, full length RXR-alpha; assay: as above
Method: as §1

Binder	binding result [1]	Fluorescence (background subtracted) [2] [fluorescence counts]	fluorescence relative to imm3 binding (=100) [3]	fluorescence relative to imm3 binding (=100) [4]	fluorescence relative to imm3 binding (=100) (full length RXR-beta)	fluorescence relative to imm3 binding (=100) (full length RXR-gamma)	fluorescence relative to imm3 binding (=100) (full length PPAR-gamma)	fluorescence relative to imm3 binding (=100) (full length RXR-alpha)	fluorescence relative to imm3 binding (=100) (relative to imm3 binding (=100)) (full length PPAR-gamma)
B1	no binding (tested: 333 ng/well peptide on 400 ng/well Nur77)	27	3.2 relative to imm3 binding (=100)	3 relative to imm3 binding (=100)	0.3 relative to imm3 binding (=100)	3.6 relative to imm3 binding (=100)	0.1 relative to imm3 binding (=100)	3.6 relative to imm3 binding (=100)	–
B2	–	6570	22.2 relative to imm3 binding (=100)	0.6 relative to imm3 binding (=100)	2.9 relative to imm3 binding (=100)	100 relative to imm3 binding (=100)	2.1 relative to imm3 binding (=100)	11.2 relative to imm3 binding (=100)	–
B3	–	587	22.9 relative to imm3 binding (=100)	1.6 relative to imm3 binding (=100)	4.7 relative to imm3 binding (=100)	42 relative to imm3 binding (=100)	–	12.9 relative to imm3 binding (=100)	6.8
B4	–	6800	22.7 relative to imm3 binding (=100)	1.8 relative to imm3 binding (=100)	4 relative to imm3 binding (=100)	90 relative to imm3 binding (=100)	1.6 relative to imm3 binding (=100)	17.2 relative to imm3 binding (=100)	–
